Experimental data as given in US20230049152A1.

Biological target: human CCR8 (human) (UniProt P51685)
Test: cell-based or functional assay

Q: How did the ADCC reporter EC50, mFcgRIV Jurkat cells with CHO/hCCR8 (FIG. 11D) turn out when “murine anti-human CCR8 mAb L263G8 (Biolegend) (antibody)” was run?
A: 0.28 nM

Q: And the CCL1 blocking potency IC50, Ca2+ influx?
A: 23.6 nM

Q: And the induction fold at about 1 nM antibody, mFcgRIV Jurkat NFAT-luciferase reporter?
A: > 10 fold

Q: And the induction fold plateau at about 40 nM antibody, mFcgRIV Jurkat NFAT-luciferase reporter?
A: 11 fold
